Test results as given in patent US20260000087.

Target: T1, alphaS1-casein, P02662
T1 chain: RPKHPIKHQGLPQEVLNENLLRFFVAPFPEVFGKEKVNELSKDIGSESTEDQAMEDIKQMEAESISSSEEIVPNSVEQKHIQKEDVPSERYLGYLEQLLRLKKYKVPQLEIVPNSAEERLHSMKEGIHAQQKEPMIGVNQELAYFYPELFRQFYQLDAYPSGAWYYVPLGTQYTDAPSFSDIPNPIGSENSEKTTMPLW

B1: aspartic protease or coagulant or chymosin represented by SEQ ID NO: 2 (protein)
chain: GKVARESLTNYLDCQYFGKIYIGTPPQEFTVVFDTGSSDLWVPSVYCNSDACQNHHRFDPSKSSTFQNMDKSLSIQYGTGSMQGLLGYDTVTVSNIVDRHQTVGLSTQEPGDVFTYSEFDGILGLAYPSLASEYSVPVFDNMMDRHLVAQDLFSVYMSRNEQGSMLTLGAIDRSYYTGSLHWIPVTVQEYWQFTVDRVTVDGVVVACDGGCQAILDTGTSMLVGPGSDIFNIQQAIGATEGQFGEFDIDCGRLSSMPTVVFEINGKKYPLPPSAYTSQDQGFCTSGFQGDYSSQQWILGDVFIREYYSVFDRASNRVGLAKAI
Degradation of intact alphaS1-casein (% of reference A) (% of reference A): 71

B2: aspartic protease represented by SEQ ID NO: 4 (protein)
chain: GEVASEPLTSYLDSQYFGKIYIGTPPQEFTVVFDTGSSDLWVPSVYCKSDACQNHQRFDPSMSSTFQNLGKPLSIQYGTGSMQGFLGYDTVTVSDIVDPQQTVGLSTQEPGDVFTYSEFDGILGLAYPSLASEYSVPVFDNMMNRHLVAQDLFSVYMDRNGQESMLTLGAIDPSYYTGSLHWVPVTLQKYWQFTVDSVTIGGVVVACDGGCQAILDTGTSMLVGPSSDILNIQMAIGATQNQYGEFDIDCGSLSSMPTVVFEINSRMYPLTPSAYTNQDQGFCTSGFQGENNSQQWILGDVFIREYYSVFDRANNRVGLAKAV
Degradation of intact alphaS1-casein (% of reference A) (% of reference A): 105

B3: bovine chymosin (CHY-MAX Plus from Chr. Hansen A/S) (protein)
chain: GEVASVPLTNYLDSQYFGKIYLGTPPQEFTVLFDTGSSDFWVPSIYCKSNACKNHQRFDPRKSSTFQNLGKPLSIHYGTGSMQGILGYDTVTVSNIVDIQQTVGLSTQEPGDVFTYAEFDGILGMAYPSLASEYSIPVFDNMMNRHLVAQDLFSVYMDRNGQESMLTLGAIDPSYYTGSLHWVPVTVQQYWQFTVDSVTISGVVVACEGGCQAILDTGTSKLVGPSSDILNIQQAIGATQNQYGEFDIDCDNLSYMPTVVFEINGKMYPLTPSAYTSQDQGFCTSGFQSENHSQKWILGDVFIREYYSVFDRANNLVGLAKAI
Degradation of intact alphaS1-casein (% of reference A) (% of reference A): 100

B4: aspartic protease or coagulant or chymosin represented by SEQ ID NO: 3 (protein)
chain: GEAAKVTDEPLTNYLDSQYFGKIYIGTPPQEFTVVFDTGSSNLWVPSVYCNSDACQNHHRFNPASSTTFRSTQEPLSIQYGTGSMEGVLGYDTVTVSQIVVPDQIFGLSTQEPGEIFTYSEFDGILGLGYPSLAEDQATPVFDNMMNKNLVAQDLFSVYMSRDSQGSMLILGAIDPSYYTGSLHWVPVTEQGYWQFSVDSITVNGQVVACEGGCQAILDTGTSLLVGPSYDIANIQSIIGATQGQYGEYDINCSNLSSMPTVVVHINGRQYPLPPSAYTNQDQGLCSSGFQSEGSDQLWILGDVFIREYYSVFDRGNNRVGLATAV
Degradation of intact alphaS1-casein (% of reference A) (% of reference A): 204

B5: aspartic protease or coagulant or chymosin represented by SEQ ID NO: 1 (protein)
chain: GKIAREPLTNYLDTEYFGKIQIGSPPQEFTVVFDTGSSDLWVPSVFCNSDACQNHHRFNPSKSSTFQNMNRPLSIQYGTGSMQGFLGYDTVTVSNIVVPHQTVGLSTQEPGDIFTYSEFDGILGLAYPSLASQYSVPVFDNMMKQHLVAQDLFSVYMNSQGQGSMLILGAIDPSYYVGALHWVPVTVQQYWQFTVDRITVDGVVVACDGGCQAILDTGTSLLVGPSSDILNIQTVIGATQGQYGEFDIDCGSLRSKPTVVFEINGREYPLPPTAYTNQDQGFCTSGFQGDDSQQWVLGDVFIREYYSVFDRVNNRVGLAKAI
Degradation of intact alphaS1-casein (% of reference A) (% of reference A): 135

B6: camel chymosin (CHY-MAX M from Chr. Hansen A/S) (protein)
chain: GKVAREPLTSYLDSQYFGKIYIGTPPQEFTVVFDTGSSDLWVPSIYCKSNVCKNHHRFDPRKSSTFRNLGKPLSIHYGTGSMEGFLGYDTVTVSNIVDPNQTVGLSTEQPGEVFTYSEFDGILGLAYPSLASEYSVPVFDNMMDRHLVARDLFSVYMDRNGQGSMLTLGAIDPSYYTGSLHWVPVTLQQYWQFTVDSVTINGVAVACVGGCQAILDTGTSVLFGPSSDILKIQMAIGATENRYGEFDVNCGNLRSMPTVVFEINGRDYPLSPSAYTSKDQGFCTSGFQGDNNSELWILGDVFIREYYSVFDRANNRVGLAKAI
Degradation of intact alphaS1-casein (% of reference A) (% of reference A): 38
